Results from PMC4966504 (mAbs, 2015).
Changes are numbered by the printed parent chain. In names and notes the source's numbering stands. Blank lines part the entries; values can stand above or below the binder they belong to.

How the values were obtained:
Assay in all cases: flow cytometry on cells
[1] = biological target: human CXCR4, endogenous on 293X cells (Homo sapiens, UniProt P61073)
[2] = biological target: human CXCR4 (G-protein C-X-C chemokine receptor 4), expressed on CHO cells (Homo sapiens, UniProt P61073-1)
human CXCR4 A175D = human CXCR4 A175D (Homo sapiens, UniProt P61073-1, A175D)
human CXCR4 E179A = human CXCR4 E179A (Homo sapiens, UniProt P61073-1, E179A)
human CXCR4 A180D = human CXCR4 A180D (Homo sapiens, UniProt P61073-1, A180D)
human CXCR4 D182A = human CXCR4 D182A (Homo sapiens, UniProt P61073-1, D182A)
human CXCR4 D181A = human CXCR4 D181A (Homo sapiens, UniProt P61073-1, D181A)
human CXCR4 P191A = human CXCR4 P191A (Homo sapiens, UniProt P61073-1, P191A)
human CXCR4 N176VSE179A4 = human CXCR4 N176VSE179A4 (Homo sapiens, UniProt P61073, N176VSE179A4)
[3] = biological target: human CXCR4 D181DRYI185A5 (Homo sapiens, UniProt P61073, D181DRYI185A5)
human CXCR4 D187RFY190A4 = human CXCR4 D187RFY190A4 (Homo sapiens, UniProt P61073, D187RFY190A4)
human CXCR4 L194W195A2 = human CXCR4 L194W195A2 (Homo sapiens, UniProt P61073, L194W195A2)

- binding result [1]: binds
B1: MEDI3185 variant VH W52/Y52A/D53 to Ala (CDR2H) (antibody, V domains shown)
VH: QVQLVESGGGVVQPGRSLRLSCAASGFTFSNYVMHWVRQAPGKGLEWVAVIAAAGSNKYYADSVKGRFTISRDNSKNTLSLQMNSLRAEDTAVYYCERGEGYYGSGSRYRGYYYGMDVWGQGTTVTVSS
VL: DIQMTQSPSSLSASVGDRVTITCRASQGIRTDLGWYQQKPGKAPKRLIYAASSLQSGVPSRFSGSGSGTEFTLTISSLQPEDFATYYCLQHNSYPRTFGQGTKVEIK

- binding result [1]: binds
B2: MEDI3185 variant VL Q27A/G28A/I29A (CDR1L) (antibody, V domains shown)
VH: B1 VH with A52W, A53Y, A54D
VL: B1 VL with Q27A, G28A, I29A

- binding result [1]: binds
B3: MEDI3185 variant VL A50/A51 to Gly, S52 to Ala (CDR2L) (antibody, V domains shown)
VH: B1 VH with A52W, A53Y, A54D
VL: B1 VL with A50G, A51G, S52A

- binding result [1]: binds
B4: MEDI3185 variant VL P95 to Ala (CDR3L) (antibody, V domains shown)
VH: B1 VH with A52W, A53Y, A54D
VL: B1 VL with P95A

- Kd [2]: 0.32 nM
- Kd (human CXCR4 A175D): 0.21 nM
- Kd (human CXCR4 E179A): 0.25 nM
- Kd (human CXCR4 A180D): 0.32 nM
- Kd (human CXCR4 D182A): 0.32 nM
- Kd (human CXCR4 D181A): 0.31 nM
- Kd (human CXCR4 P191A): 0.36 nM
- Kd (human CXCR4 N176VSE179A4): 0.37 nM
- Kd [3]: 0.28 nM
- Kd (human CXCR4 D187RFY190A4): 0.37 nM
- Kd (human CXCR4 L194W195A2): 0.3 nM
B5: MEDI3185 (antibody, V domains shown)
VH: B1 VH with A52W, A53Y, A54D
VL: B1 VL

- binding result [1]: binds
B6: MEDI3185 variant VL N92/S93/Y94 to Ala (CDR3L) (antibody, V domains shown)
VH: B1 VH with A52W, A53Y, A54D
VL: B1 VL with N92A, S93A, Y94A

- binding result [1]: binds
B7: MEDI3185 variant VH G54/S55/N56 to Ala (CDR2H) (antibody, V domains shown)
VH: B1 VH with A52W, A53Y, A54D, G55A, S56A, N57A
VL: B1 VL

- binding result [1]: binds
B8: MEDI3185 variant VH N31A/Y32A/V33A (CDR1H) (antibody, V domains shown)
VH: B1 VH with N31A, Y32A, V33A, A52W, A53Y, A54D
VL: B1 VL
